This is an account of results in PMC12990809.

Common to all, as to assay: pulldown
The target of data set [1] is T1, MBNL1 (Homo sapiens) (UniProt Q9NR56).
T1 sequence: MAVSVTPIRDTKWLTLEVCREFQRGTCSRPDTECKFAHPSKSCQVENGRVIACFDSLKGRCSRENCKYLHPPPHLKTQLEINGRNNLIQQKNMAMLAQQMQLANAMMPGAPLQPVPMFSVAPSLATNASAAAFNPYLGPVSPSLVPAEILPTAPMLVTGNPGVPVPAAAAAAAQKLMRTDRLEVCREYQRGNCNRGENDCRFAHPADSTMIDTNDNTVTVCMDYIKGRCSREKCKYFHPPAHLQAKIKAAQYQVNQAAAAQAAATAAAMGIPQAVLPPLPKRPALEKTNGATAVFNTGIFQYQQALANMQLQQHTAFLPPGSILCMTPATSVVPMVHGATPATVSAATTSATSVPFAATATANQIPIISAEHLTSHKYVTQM
The conditions noted are these: 20 nM protein, 1.5 uM RNA pool; 20 mM HEPES pH 7.8, 70 mM KCl, 10 mM NaCl, 10% glycerol, 2 mM DTT, 0.1 ug/uL BSA; 30 min, 4 C (protocol of this paper; not …); cited from earlier work.

In data set [2] the target is T2, Tb927.6.4960 Q72H;T102A;A103T (Trypanosoma brucei) (UniProt Q586G8).
T2 sequence: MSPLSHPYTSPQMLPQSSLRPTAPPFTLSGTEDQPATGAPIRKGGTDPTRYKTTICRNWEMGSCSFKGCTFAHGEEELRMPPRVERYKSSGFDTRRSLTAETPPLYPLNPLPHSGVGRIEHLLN
The conditions noted are these: 20 nM protein, 1.5 uM RNA pool; 20 mM HEPES pH 7.8, 70 mM KCl, 10 mM NaCl, 10% glycerol, 2 mM DTT, 0.1 ug/uL BSA; 30 min, 4 C.

Data set [3] addresses T3, Tb927.5.810 S125L (Trypanosoma brucei) (UniProt Q57W26).
T3 sequence: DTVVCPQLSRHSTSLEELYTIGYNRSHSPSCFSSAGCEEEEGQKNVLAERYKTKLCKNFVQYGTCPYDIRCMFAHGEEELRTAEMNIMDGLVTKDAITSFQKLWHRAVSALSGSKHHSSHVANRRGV
The conditions noted are these: 20 nM protein, 1.5 uM RNA pool; 20 mM HEPES pH 7.8, 70 mM KCl, 10 mM NaCl, 10% glycerol, 2 mM DTT, 0.1 ug/uL BSA; 30 min, 4 C.

Data set [4] addresses T4, tardbp (Danio rerio) (UniProt A0ACM8Q011).
T4 sequence: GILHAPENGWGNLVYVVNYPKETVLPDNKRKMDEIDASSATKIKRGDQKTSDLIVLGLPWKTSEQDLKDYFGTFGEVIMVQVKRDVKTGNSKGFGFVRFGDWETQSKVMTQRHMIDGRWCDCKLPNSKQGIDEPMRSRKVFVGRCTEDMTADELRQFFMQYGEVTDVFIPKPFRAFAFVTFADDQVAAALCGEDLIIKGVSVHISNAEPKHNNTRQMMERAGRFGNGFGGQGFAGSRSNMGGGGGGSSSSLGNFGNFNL
The conditions noted are these: 20 nM protein, 1.5 uM RNA pool; 20 mM HEPES pH 7.8, 70 mM KCl, 10 mM NaCl, 10% glycerol, 2 mM DTT, 0.1 ug/uL BSA; 30 min, 4 C.

Data set [5] has as its target hnrnpa0b (Danio rerio) (UniProt A0A8M1PHH6). The conditions noted are these: 20 nM protein, 1.5 uM RNA pool; 20 mM HEPES pH 7.8, 70 mM KCl, 10 mM NaCl, 10% glycerol, 2 mM DTT, 0.1 ug/uL BSA; 30 min, 4 C.
Data set [6] has as its target T5, PK21151.1 (Cannabis sativa) (UniProt A0A7J6F7E6).
T5 sequence: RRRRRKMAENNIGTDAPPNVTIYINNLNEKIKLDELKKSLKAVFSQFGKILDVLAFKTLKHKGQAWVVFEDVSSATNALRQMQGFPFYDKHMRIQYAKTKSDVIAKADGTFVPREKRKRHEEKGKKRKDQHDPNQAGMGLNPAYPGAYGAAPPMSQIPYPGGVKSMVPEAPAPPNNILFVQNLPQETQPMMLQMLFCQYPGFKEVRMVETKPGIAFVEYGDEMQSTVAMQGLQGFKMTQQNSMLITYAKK
The following applies: 20 nM protein, 1.5 uM RNA pool; 20 mM HEPES pH 7.8, 70 mM KCl, 10 mM NaCl, 10% glycerol, 2 mM DTT, 0.1 ug/uL BSA; 30 min, 4 C.

For data set [7], the target named is u2af2b (Tetraodon nigroviridis) (UniProt H3CRP7). The following applies: 20 nM protein, 1.5 uM RNA pool; 20 mM HEPES pH 7.8, 70 mM KCl, 10 mM NaCl, 10% glycerol, 2 mM DTT, 0.1 ug/uL BSA; 30 min, 4 C.
Data set [8] concerns the target ENSTNIG00000011257 (Tetraodon nigroviridis) (UniProt H3D110). The conditions noted are these: 20 nM protein, 1.5 uM RNA pool; 20 mM HEPES pH 7.8, 70 mM KCl, 10 mM NaCl, 10% glycerol, 2 mM DTT, 0.1 ug/uL BSA; 30 min, 4 C.
The target in data set [9] is T6, TIA1 (Tetraodon nigroviridis) (UniProt H3D1J1).
T6 sequence: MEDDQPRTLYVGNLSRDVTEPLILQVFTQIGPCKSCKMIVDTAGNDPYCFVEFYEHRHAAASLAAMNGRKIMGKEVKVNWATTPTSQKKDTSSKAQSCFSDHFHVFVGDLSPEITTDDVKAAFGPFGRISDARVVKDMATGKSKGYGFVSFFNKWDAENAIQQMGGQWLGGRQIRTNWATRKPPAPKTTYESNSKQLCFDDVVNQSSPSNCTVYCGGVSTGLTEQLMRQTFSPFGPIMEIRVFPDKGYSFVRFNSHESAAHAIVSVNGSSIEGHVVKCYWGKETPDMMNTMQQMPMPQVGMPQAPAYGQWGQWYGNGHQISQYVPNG
The following applies: 20 nM protein, 1.5 uM RNA pool; 20 mM HEPES pH 7.8, 70 mM KCl, 10 mM NaCl, 10% glycerol, 2 mM DTT, 0.1 ug/uL BSA; 30 min, 4 C.

Data set [10] concerns the target T7, PUF60 (Homo sapiens) (UniProt Q9UHX1).
T7 sequence: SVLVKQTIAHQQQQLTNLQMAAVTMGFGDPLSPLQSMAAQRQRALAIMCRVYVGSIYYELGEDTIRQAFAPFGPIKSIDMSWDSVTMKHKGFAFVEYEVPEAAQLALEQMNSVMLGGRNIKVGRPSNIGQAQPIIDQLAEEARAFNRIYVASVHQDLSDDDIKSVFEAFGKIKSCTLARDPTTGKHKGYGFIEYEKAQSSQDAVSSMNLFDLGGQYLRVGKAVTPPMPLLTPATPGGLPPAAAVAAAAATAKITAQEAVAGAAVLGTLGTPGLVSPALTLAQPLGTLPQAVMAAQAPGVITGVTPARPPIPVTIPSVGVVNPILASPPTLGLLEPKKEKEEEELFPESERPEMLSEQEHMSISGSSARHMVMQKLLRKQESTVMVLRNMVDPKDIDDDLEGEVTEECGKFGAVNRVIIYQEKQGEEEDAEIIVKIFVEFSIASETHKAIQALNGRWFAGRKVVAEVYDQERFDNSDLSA
The following applies: 20 nM protein, 1.5 uM RNA pool; 20 mM HEPES pH 7.8, 70 mM KCl, 10 mM NaCl, 10% glycerol, 2 mM DTT, 0.1 ug/uL BSA; 30 min, 4 C.

ENSTNIG00000011257 (Tetraodon nigroviridis), sequence (H3D110 entry or part of it): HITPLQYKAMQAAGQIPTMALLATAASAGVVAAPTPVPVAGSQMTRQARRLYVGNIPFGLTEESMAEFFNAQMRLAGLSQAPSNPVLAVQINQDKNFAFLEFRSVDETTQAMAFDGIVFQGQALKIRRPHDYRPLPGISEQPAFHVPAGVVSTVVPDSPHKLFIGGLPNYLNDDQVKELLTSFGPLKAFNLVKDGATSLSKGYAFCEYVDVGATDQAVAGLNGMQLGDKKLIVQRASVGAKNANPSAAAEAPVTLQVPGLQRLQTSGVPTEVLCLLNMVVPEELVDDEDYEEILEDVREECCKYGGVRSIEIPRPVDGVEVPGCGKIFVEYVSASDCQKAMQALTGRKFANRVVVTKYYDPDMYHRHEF
u2af2b (Tetraodon nigroviridis), sequence (H3CRP7 entry or part of it): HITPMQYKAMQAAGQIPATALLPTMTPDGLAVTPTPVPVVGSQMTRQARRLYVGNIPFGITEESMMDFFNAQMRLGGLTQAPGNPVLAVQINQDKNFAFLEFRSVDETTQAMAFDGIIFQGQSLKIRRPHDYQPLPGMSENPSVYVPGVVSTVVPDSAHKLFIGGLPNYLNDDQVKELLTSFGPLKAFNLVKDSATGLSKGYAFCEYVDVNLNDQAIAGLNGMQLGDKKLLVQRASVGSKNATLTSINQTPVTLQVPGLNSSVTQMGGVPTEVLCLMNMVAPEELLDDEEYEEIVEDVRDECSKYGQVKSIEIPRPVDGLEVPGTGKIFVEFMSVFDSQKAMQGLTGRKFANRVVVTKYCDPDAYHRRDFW
hnrnpa0b (Danio rerio), sequence (A0A8M1PHH6 entry or part of it): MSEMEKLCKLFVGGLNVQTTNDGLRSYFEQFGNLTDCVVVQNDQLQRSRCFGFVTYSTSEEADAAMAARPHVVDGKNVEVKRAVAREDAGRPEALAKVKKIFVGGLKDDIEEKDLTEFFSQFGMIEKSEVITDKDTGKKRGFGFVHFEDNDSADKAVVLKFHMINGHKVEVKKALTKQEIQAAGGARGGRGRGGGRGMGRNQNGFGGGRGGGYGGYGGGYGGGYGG

For GCUUGC [RNAcompete motif RNCMPT00038], in data set [1], the binding signal (z-score (mean of top ten 7-mers)) was 11.2.

The sequence UAAUAA [RNAcompete motif RNCMPT00833] gave a binding signal (z-score (mean of top ten 7-mers)) in data set [2] of 13.9.

Turning to UAUUAUU [RNAcompete motif RNCMPT00837], the binding signal (z-score (mean of top ten 7-mers)) in [3] came to 13.

For UGAAUGA [RNAcompete motif RNCMPT01664], the binding signal (z-score (mean of top ten 7-mers)) in [4] was 9.7.

In [5], UUAGAUAG [RNAcompete motif RNCMPT01667] yielded a binding signal (z-score (mean of top ten 7-mers)) of 9.2.

For the sequence UUGCACA [RNAcompete motif RNCMPT00830], in data set [6], the binding signal (z-score (mean of top ten 7-mers)) turned out to be 12.4.

Take UUUUUCC [RNAcompete motif RNCMPT01670]: the binding signal (z-score (mean of top ten 7-mers)) in data set [7] is 10.4.

For the sequence UUUUUU [RNAcompete motif RNCMPT01671], the binding signal (z-score (mean of top ten 7-mers)) in data set [8] was determined as 12.3.

As to UUUUUU [RNAcompete motif RNCMPT01672], in data set [9], the binding signal (z-score (mean of top ten 7-mers)) was 8.74.

UUUUUUU [RNAcompete motif RNCMPT00820] yielded a binding signal (z-score (mean of top ten 7-mers)) in data set [10] of 12.
